Results taken from patent US20260209365A1, “ANTI-COMMON GAMMA CHAIN PROTEINS AND COMPOSITIONS OF MATTER” (SINOMAB BIOSCIENCE LIMITED, priority 2023, published 2026).
Changes are numbered by the printed parent chain.

T1: human γc protein (extracellular domain) (human, UniProt P31785 23-262)
T1 construct: Purchased from Sino Biological or made in-house; Residues 1-262 may hold the signal peptide; also called human common gamma chain; purified human γc
T1 sequence: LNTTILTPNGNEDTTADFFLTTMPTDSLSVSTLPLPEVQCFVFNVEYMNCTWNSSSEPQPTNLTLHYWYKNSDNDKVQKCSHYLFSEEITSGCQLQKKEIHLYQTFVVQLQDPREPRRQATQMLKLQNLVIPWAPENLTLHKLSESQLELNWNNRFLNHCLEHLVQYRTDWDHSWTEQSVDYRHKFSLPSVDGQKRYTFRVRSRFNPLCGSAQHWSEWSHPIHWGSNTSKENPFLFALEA

T2: chimpanzee γc protein (extracellular domain), purified (chimpanzee (Pan troglodytes), UniProt P31785 23-262)
T2 construct: also called chimpanzee (Pan troglodytes) γc
T2 sequence: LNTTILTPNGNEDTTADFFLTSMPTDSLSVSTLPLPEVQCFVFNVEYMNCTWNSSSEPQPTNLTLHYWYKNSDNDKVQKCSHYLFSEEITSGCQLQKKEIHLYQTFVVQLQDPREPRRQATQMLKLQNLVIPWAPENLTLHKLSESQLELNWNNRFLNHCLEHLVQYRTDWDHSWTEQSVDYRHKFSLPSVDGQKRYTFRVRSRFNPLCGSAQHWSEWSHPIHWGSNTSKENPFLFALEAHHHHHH

T3: human γc protein (extracellular domain), purified (human (Homo sapiens), UniProt P31785 23-262)
T3 construct: Either purchased from Sino Biological or in-house generated; also called human common gamma chain; CD132; not shown: which was used i
T3 sequence: T1 sequence

T4: cynomolgus γc protein (extracellular domain), purified (cynomolgus (Macaca fascicularis), UniProt P31785 23-254 (human entry))
T4 construct: Purchased from Sino Biological or in-house; also called cynomolgus (Macaca fascicularis) γc
T4 chain: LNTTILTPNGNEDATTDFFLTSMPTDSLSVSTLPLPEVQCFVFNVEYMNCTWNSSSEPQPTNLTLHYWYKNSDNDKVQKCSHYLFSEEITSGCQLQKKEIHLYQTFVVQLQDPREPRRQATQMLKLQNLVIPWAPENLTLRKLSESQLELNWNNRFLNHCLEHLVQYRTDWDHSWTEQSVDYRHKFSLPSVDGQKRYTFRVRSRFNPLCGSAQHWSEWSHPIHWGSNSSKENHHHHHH

T5: rat γc protein (extracellular domain) (rat)
T5 chain: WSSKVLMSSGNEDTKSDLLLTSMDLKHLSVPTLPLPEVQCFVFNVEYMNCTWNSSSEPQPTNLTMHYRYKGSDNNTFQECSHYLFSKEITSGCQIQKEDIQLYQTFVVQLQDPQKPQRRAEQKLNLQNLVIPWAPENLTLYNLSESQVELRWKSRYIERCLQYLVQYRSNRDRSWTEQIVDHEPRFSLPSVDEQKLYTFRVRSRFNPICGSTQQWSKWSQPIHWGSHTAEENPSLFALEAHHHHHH

T6: mouse γc protein (extracellular domain) (mouse, UniProt P34902 23-263)
T6 construct: also called Mus musculus γc
T6 sequence: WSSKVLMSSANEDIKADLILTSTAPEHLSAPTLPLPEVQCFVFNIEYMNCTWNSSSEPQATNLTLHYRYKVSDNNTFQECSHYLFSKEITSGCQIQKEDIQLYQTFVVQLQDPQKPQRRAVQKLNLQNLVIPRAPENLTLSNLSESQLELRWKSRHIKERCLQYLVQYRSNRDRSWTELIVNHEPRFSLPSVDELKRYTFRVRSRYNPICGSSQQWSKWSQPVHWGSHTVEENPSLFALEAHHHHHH

T7: cynomolgus γc protein (extracellular domain) (cynomolgus, UniProt P31785 23-254 (human entry))
T7 construct: also called Macaca fascicularis γc
T7 chain: T4 chain

T8: common marmoset γc protein (extracellular domain) (common marmoset, UniProt P31785 26-262 (human entry))
T8 construct: also called Callithrix jacchus γc
T8 chain: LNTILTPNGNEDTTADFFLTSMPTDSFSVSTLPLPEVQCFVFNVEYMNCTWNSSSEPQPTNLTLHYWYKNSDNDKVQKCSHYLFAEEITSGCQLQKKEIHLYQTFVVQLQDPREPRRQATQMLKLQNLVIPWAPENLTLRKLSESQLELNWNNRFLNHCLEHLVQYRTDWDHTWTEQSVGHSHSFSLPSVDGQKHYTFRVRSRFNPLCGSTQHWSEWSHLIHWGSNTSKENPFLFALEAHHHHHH

B1: SM-05A full-length chimeric anti-γc antibody (antibody, V domains shown)
VH: EVQLQQSGPELVKPGASVKISCKTSGYTFTEYTMHWVKQSHGKSLEWIGGIDPYNGGATYNQRFKGKATLTVDKSSSTAYMEFRSLTSEDSAVYYCARRRLYYGNALDYWGQGTSVTVSS
VL: DVLMTQTPLSLPVSLGDQASISCRSSQSLVHSNGNTYLHWYLQRPGQSPKLLIYKVSSRFSGVPDRFSGSGSGTDFTLKISRVEAEDLGVYFCSQTTHVPFTFGSGTKLEIKR
notes: Full-length chimeric antibody made in Expi-CHO (mouse variable, human constant regions)
B2: SM-05E full-length chimeric anti-γc antibody (antibody, V domains shown)
VH: EVHLQQSGPELVKPGASVKIFCKTSGYTFTEYTMHWVKQSHGESLEWIGGIDPNTGGVTYNQKFKGKATLTADKSSSTAYMELRSLTSEDSAVYYCARRRRYYGYALDYWGQGTSVTVSS
VL: B1 VL with L29I, H39E, R44K, S58N, R82S, T96S, T102M
notes: Full-length chimeric antibody made in Expi-CHO
B3: hSM-05A (humanized anti-γc antibody with back-mutation) (antibody, V domains shown)
VH: QVQLVQSGAEVLKPGASVKVSCKASGYTFTEYTMHWVKQARGQRLEWIGGIDPYNGGATYNQRFKGKATLTTDTSTSTAYMELRNLRSDDTAVYYCARRRLYYGNALDYWGQGTLVTVSS
VL: B1 VL with V2I, L3V, T7S, S14T, L15P, D17E, R44K, K50Q, L88V
notes: Full-length humanized antibody; 199-200' and the pairing of claim 11(b); also called hbSM-05A; humanized SM-05A
B4: hSM-05E (humanized anti-γc antibody with back-mutation) (antibody, V domains shown)
VH: B3 VH with Y54N, N55T, A58V, R63K, L101R, N105Y
VL: DIVMTQSPLSLPVTPGEQASISCRSSQSIVHSNGNTYLEWYLQKPGQSPQLLIYKVSNRFSGVPDRFSGSGSGTDFTLKISRVEAEDVGVYFCSQSTHVPFMFGSGTKLEIKR
notes: Full-length humanized antibody; VH 198 / VL 200 tied to SM-05E only by the order '(e.g., SM-05A, SM-05E) ; 199-200' and the pairing of claim 11(d); also called hbSM-05E; humanized SM-05E

How the values were obtained:
[1] = biological target: T1, human γc protein (extracellular domain); assay: monoclonal phage ELISA, human γc protein; negative control
[2] = biological target: T2, chimpanzee γc protein (extracellular …); assay: ELISA, strip coated with 1 µg/ml chimpanzee γc, antibody in 5-fold dilutions from 10 to 0.00064 µg/ml, OD 450 nm; sigmoid curve reaching about 1.4
Description: (§1) More particularly, FIG. 3A presents the binding curve of SM-05A and FIG. 3B presents the bin ding curve of SM-05E. In each example, the ELISA strip was coated with 1 μg/ml γc protein from each species and antibody was diluted 5-fold each from 10 μg/ml to 0.00064 μg/ml.
(§2) Selected clones of full-length antibodies were evaluated by ELISA to access the binding specificity.

[3] = biological target: T3, human γc protein (extracellular …); assay: ELISA, strip coated with 1 µg/ml human γc, antibody in 5-fold dilutions from 10 to 0.00064 µg/ml, OD 450 nm; sigmoid curve with plateau about 1.55
Description: as §1, §2

[4] = biological target: T4, cynomolgus γc protein (extracellular …); assay: ELISA, strip coated with 1 µg/ml cynomolgus γc, antibody in 5-fold dilutions from 10 to 0.00064 µg/ml, OD 450 nm; curve stays near baseline up to about 0.4 µg/ml and rises to about 1.35 at 10 µg/ml, no upper plateau
Description: as §1, §2

[5] = biological target: T3, human γc protein (extracellular …); assay: ELISA, strip coated with 1 µg/ml human γc, antibody in 5-fold dilutions from 10 to 0.00064 µg/ml, OD 450 nm; sigmoid curve with plateau about 1.6
Description: as §1, §2

[6] = biological target: T2, chimpanzee γc protein (extracellular …); assay: ELISA, strip coated with 1 µg/ml chimpanzee γc, antibody in 5-fold dilutions from 10 to 0.00064 µg/ml, OD 450 nm; curve rises to about 1.5 at the last point shown
Description: as §1, §2

[7] = biological target: T4, cynomolgus γc protein (extracellular …); assay: ELISA, strip coated with 1 µg/ml cynomolgus γc, antibody in 5-fold dilutions from 10 to 0.00064 µg/ml, OD 450 nm; curve stays near baseline up to about 0.08 µg/ml and rises to about 1.65 at 10 µg/ml, no upper plateau
Description: as §1, §2

[8] = biological target: T5, rat γc protein (extracellular domain); assay: BLI, antibody on anti-human IgG sensors, rat γc in solution
[9] = biological target: T6, mouse γc protein (extracellular domain); assay: BLI, antibody on anti-human IgG sensors, mouse γc in solution
Description: (§3) Full-length humanized antibodies were evaluated by BLI to access their binding kinetics. The binding activities of full-length anti-γc antibody were investigated using γc proteins (extracellular domain) from human and common marmoset (either purchased or in-house generated). Briefly, anti-γc antibody (20 μg/mL) was immobilized on biosensors via interactions with anti-human IgG; serially diluted γc proteins (at a concentration of 158.7 nM, 79.4 Nm, 39.7n M and 0 nM respectively) were subsequently added following standard operation protocols of the Octet ReD96 system to plot out the association and dissociation curve. Irrelevant antibody (SM03, anti-human CD22 chimeric IgG1 antibody, SinoMab BioScience Limited) was used as the control reference. The KD is within the picomolar-single digit nanomolar range.

[10] = biological target: T7, cynomolgus γc protein (extracellular …); assay: BLI, antibody on anti-human IgG sensors, cynomolgus γc in solution
[11] = biological target: T8, common marmoset γc protein …; assay: BLI, antibody on anti-human IgG sensors, common marmoset γc in solution
Description: as §3

[12] = biological target: T1, human γc protein (extracellular domain); assay: BLI (Octet RED96), antibody on anti-human IgG sensors, γc in solution; Experiment 1
Description: as §3

[13] = biological target: T1, human γc protein (extracellular domain); assay: BLI (Octet RED96), antibody on anti-human IgG sensors, γc in solution; Experiment 2
Description: as §3

Molecule | Kd [8] [nM] | Kd [9] [nM] | koff [9] [s⁻¹] | kon [9] [M⁻¹ s⁻¹] | Kd [10] [nM] | koff [10] [s⁻¹] | kon [10] [M⁻¹ s⁻¹] | Kd [11] [nM] | koff [11] [s⁻¹] | kon [11] [M⁻¹ s⁻¹] | Kd [12] [nM] | koff [12] [s⁻¹] | kon [12] [M⁻¹ s⁻¹] | Kd [13] [nM] | koff [13] [s⁻¹] | kon [13] [M⁻¹ s⁻¹] | other results
M13KO7 (negative) | – | – | – | – | – | – | – | – | – | – | – | – | – | – | – | – | OD (450 nm) [1]: 0.045 OD
B1 | – | – | – | – | – | – | – | – | – | – | – | – | – | – | – | – | EC50 [2]: 0.17 µg/mL; EC50 [3]: 0.02 µg/mL; EC50 [4]: 14.5 µg/mL
B2 | – | – | – | – | – | – | – | – | – | – | – | – | – | – | – | – | EC50 [5]: 0.02 µg/mL; EC50 [6]: 0.17 µg/mL; EC50 [7]: 6.47 µg/mL
B3 | 16.1 | 108 | 0.000712 | 6580 | 304 | 0.00683 | 22500 | 4.05 | 0.00121 | 300000 | 2.69 | 0.000319 | 119000 | 8.23 | 0.00144 | 175000 | –
B4 | 29.3 | 66.2 | 0.0252 | 340000 | 304 | 0.00683 | 22500 | 5.27 | 0.00175 | 333000 | 4.82 | 0.000573 | 119000 | 2.89 | 0.000944 | 327000 | koff [8]: 0.00208 s⁻¹; kon [8]: 71000 M⁻¹ s⁻¹
